Source: patent US20130209454A1

Tests used:
Assay in all cases: cell-based or functional assay
[1] = biological target: Env of HIV-1 strain 1054_07_TC4_1499 (HIV-1)
[2] = biological target: Env of HIV-1 strain 249M B10 (HIV-1)
[3] = biological target: Env of HIV-1 strain 3817.v2.c59 (HIV-1)
[4] = biological target: Env of HIV-1 strain 6041.v3.c23 (HIV-1)
[5] = biological target: Env of HIV-1 strain 6240_08_TA5_4622 (HIV-1)
[6] = biological target: Env of HIV-1 strain 6545.v4.c1 (HIV-1)
[7] = biological target: Env of HIV-1 strain 6952.v1.c20 (HIV-1)
[8] = biological target: Env of HIV-1 strain 7030102001E5(Rev-) (HIV-1)
[9] = biological target: Env of HIV-1 strain 928-28 (HIV-1)
[10] = biological target: Env of HIV-1 strain BJOX025000.01.1 (HIV-1)
[11] = biological target: Env of HIV-1 strain CNE53 (HIV-1)
[12] = biological target: Env of HIV-1 strain Ce704809221_1B3 (HIV-1)
[13] = biological target: Env of HIV-1 strain HIV-16055-2.3 (HIV-1)
[14] = biological target: Env of HIV-1 strain P1981_C5_3 (HIV-1)
[15] = biological target: Env of HIV-1 strain Q23.17 (HIV-1)
[16] = biological target: Env of HIV-1 strain QH0692.42 (HIV-1)
[17] = biological target: Env of HIV-1 strain R1166.c01 (HIV-1)
[18] = biological target: Env of HIV-1 strain SC422661.8 (HIV-1)
[19] = biological target: Env of HIV-1 strain T251-18 (HIV-1)
[20] = biological target: Env of HIV-1 strain TRJO4551.58 (HIV-1)
[21] = biological target: Env of HIV-1 strain X1254_c3 (HIV-1)
[22] = biological target: Env of HIV-1 strain X1632_S2_B10 (HIV-1)
[23] = biological target: Env of HIV-1 strain X2088_c9 (HIV-1)
[24] = biological target: Env of HIV-1 strain ZM197M.PB7 (HIV-1)
[25] = biological target: Env of HIV-1 strain ZM247v1(Rev-) (HIV-1)
[26] = biological target: HIV-1 Env of strain 1056_10_TA11_1826 (HIV-1)
[27] = biological target: HIV-1 Env of strain 1394C9G1(Rev-) (HIV-1)
[28] = biological target: HIV-1 Env of strain 231965.c01 (HIV-1)
[29] = biological target: HIV-1 Env of strain 3415.v1.c1 (HIV-1)
[30] = biological target: HIV-1 Env of strain 62357_14_D3_4589 (HIV-1)
[31] = biological target: HIV-1 Env of strain 6480.v4.c25 (HIV-1)
[32] = biological target: HIV-1 Env of strain 6545.v4.c1 (HIV-1)
[33] = biological target: HIV-1 Env of strain 9004SS_A3_4 (HIV-1)
[34] = biological target: HIV-1 Env of strain 928-28 (HIV-1)
[35] = biological target: HIV-1 Env of strain BJOX010000.06.2 (HIV-1)
[36] = biological target: HIV-1 Env of strain BJOX025000.01.1 (HIV-1)
[37] = biological target: HIV-1 Env of strain C3347.c11 (HIV-1)
[38] = biological target: HIV-1 Env of strain CNE17 (HIV-1)
[39] = biological target: HIV-1 Env of strain CNE19 (HIV-1)
[40] = biological target: HIV-1 Env of strain CNE21 (HIV-1)
[41] = biological target: HIV-1 Env of strain Ce703010054_2A2 (HIV-1)
[42] = biological target: HIV-1 Env of strain Du172.17 (HIV-1)
[43] = biological target: HIV-1 Env of strain Du422.1 (HIV-1)
[44] = biological target: HIV-1 Env of strain HIV-16055-2.3 (HIV-1)
[45] = biological target: HIV-1 Env of strain MS208.A1 (HIV-1)
[46] = biological target: HIV-1 Env of strain Q23.17 (HIV-1)
[47] = biological target: HIV-1 Env of strain Q842.d12 (HIV-1)
[48] = biological target: HIV-1 Env of strain T250-4 (HIV-1)
[49] = biological target: HIV-1 Env of strain TRO.11 (HIV-1)
[50] = biological target: HIV-1 Env of strain ZM109F.PB4 (HIV-1)
[51] = biological target: HIV-1 Env of strain ZM53M.PB12 (HIV-1)

Sequence of NIH45-46 (antibody) (VH): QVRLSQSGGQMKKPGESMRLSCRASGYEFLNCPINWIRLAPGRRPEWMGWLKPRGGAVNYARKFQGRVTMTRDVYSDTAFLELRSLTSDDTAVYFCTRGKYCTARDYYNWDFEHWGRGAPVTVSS
Sequence of NIH45-46 (antibody) (V domain): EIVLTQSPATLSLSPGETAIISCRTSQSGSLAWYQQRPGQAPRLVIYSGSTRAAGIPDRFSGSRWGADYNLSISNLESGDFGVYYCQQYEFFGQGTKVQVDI

NIH45-46 (antibody)
IC80 [1]: 0.404 µg/mL | IC80 [2]: 0.17 µg/mL | IC80 [3]: > 50 µg/mL | IC80 [4]: 0.04 µg/mL | IC80 [5]: 1.55 µg/mL | IC80 [6]: > 50 µg/mL | IC80 [7]: 0.07 µg/mL | IC80 [8]: 0.63 µg/mL | IC80 [9]: 0.64 µg/mL | IC80 [10]: 10 µg/mL | IC80 [11]: 0.039 µg/mL | IC80 [12]: 0.88 µg/mL | IC80 [13]: 0.06 µg/mL | IC80 [14]: 0.24 µg/mL | IC80 [15]: 0.5 µg/mL | IC80 [16]: 1.71 µg/mL | IC80 [17]: 1.21 µg/mL | IC80 [18]: 0.13 µg/mL | IC80 [19]: 3.68 µg/mL | IC80 [20]: 0.13 µg/mL | IC80 [21]: 0.107 µg/mL | IC80 [22]: > 50 µg/mL | IC80 [23]: > 50 µg/mL | IC80 [24]: 0.55 µg/mL | IC80 [25]: 24.5 µg/mL | IC50, pseudovirus neutralization [26]: 0.094 µg/mL | IC50, pseudovirus neutralization [27]: 0.09 µg/mL | IC50, pseudovirus neutralization [28]: 0.051 µg/mL | IC50, pseudovirus neutralization [29]: 0.022 µg/mL | IC50, pseudovirus neutralization [30]: 0.06 µg/mL | IC50, pseudovirus neutralization [31]: 0.032 µg/mL | IC50, pseudovirus neutralization [32]: > 50 µg/mL | IC50, pseudovirus neutralization [33]: 0.18 µg/mL | IC50, pseudovirus neutralization [34]: 0.23 µg/mL | IC50, pseudovirus neutralization [35]: 0.87 µg/mL | IC50, pseudovirus neutralization [36]: 0.18 µg/mL | IC50, pseudovirus neutralization [37]: 0.029 µg/mL | IC50, pseudovirus neutralization [38]: 0.261 µg/mL | IC50, pseudovirus neutralization [39]: 0.07 µg/mL | IC50, pseudovirus neutralization [40]: 6.01 µg/mL | IC50, pseudovirus neutralization [41]: 0.159 µg/mL | IC50, pseudovirus neutralization [42]: > 50 µg/mL | IC50, pseudovirus neutralization [43]: > 50 µg/mL | IC50, pseudovirus neutralization [44]: 0.02 µg/mL | IC50, pseudovirus neutralization [45]: 0.09 µg/mL | IC50, pseudovirus neutralization [46]: 0.14 µg/mL | IC50, pseudovirus neutralization [47]: 0.031 µg/mL | IC50, pseudovirus neutralization [48]: > 50 µg/mL | IC50, pseudovirus neutralization [49]: 1.61 µg/mL | IC50, pseudovirus neutralization [50]: 0.095 µg/mL | IC50, pseudovirus neutralization [51]: 0.175 µg/mL
